Results on five substances are retold here after patent US20190375786A1, “STABLE PEPTIDES AND METHODS OF USE THEREOF” (Fred Hutchinson Cancer Research Center, priority 2016, published 2019).

Data set [1] is described as follows: Resistance to elevated temperature, HPLC. Conditions: HPLC peak vs untreated peptide; for Resistance to Temperature (75° C.): 75° C. for one hour; for Resistance to Temperature (100° C.): 100° C. for one hour. The class given is physicochemical. The method, then: (§1) Peptides were first suspended in 500 μl of ddH2O to a stock concentration of 2 mg/ml. Reactions were prepared by adding 12.5 μg of peptide from the stock solution to a 10 mM solution of DTT in PBS and allowed to incubate at room temperature for 30 minutes. Other reactions were prepared with 12.5 μg peptide and 500 U/ml trypsin in 25 mM Tris/75 mM NaCl buffer (pH 7.0) and incubated for 30 minutes at 37.5° C. These reactions were then quenched with 5 μg of soybean trypsin inhibitor (I) and, in some cases, 10 mM dithiothreitol (DTT). Reversed phase HPLC (RP-HPLC) was run on samples using an Agilent 1260 HPLC equipped with a C-18 Poroshell 120B column. Sample were analyzed by a gradient method with a mobile phase of Solvent A (water with 0.1% TFA) and Solvent B (acetonitrile with 0.1% TFA). Solvent B was ramped up from 5%-45% of the mobile phase over a period of 10 minutes. For testing pepsin digestion resistance, reactions were prepared with 12.5 μg peptide with or without 500 U/ml pepsin in simulated gastric fluid (SGF; pH 1.05; […] sodium chloride in 0.7% (v/v) hydrochloric acid) and were incubated for 30 minutes at 37.5° C. For testing temperature resistance, peptides were incubated at 70° C., 75° C., or 100° C. for one hour in 0.5 mM PBS, pelleted, and then the supernatant was analyzed by HPLC.
This example illustrates peptide stability at high temperatures. Peptides were first suspended in 500 μl of ddH2O to a stock concentration of 2 mg/ml. Reactions were prepared by adding 6.25 μl of peptide from the stock solution with 95 μl ddH2O and incubated at room temperature, 70° C., or 100° C. for one hour in a Thermocycler. RP-HPLC was then run on samples using an Agilent 1260 HPLC equipped with a C-18 Poroshell 120B column. Sample were analyzed by a gradient method with a mobile phase of Solvent A (water with 0.1% TFA) and Solvent B (acetonitrile with 0.1% TFA). Solvent B was ramped up from 5%-45% of the mobile phase over a period of 10 minutes.

Data set [2] in a line: Resistance to reduction by DTT, RP-HPLC. In kind it is physicochemical. Conditions: 10 mM DTT in PBS, room temperature, 30 minutes; HPLC peak vs untreated peptide. The method, then:
Peptides were first suspended in 500 ul of ddH2O to a stock concentration of 2 mg/ml. Reactions were prepared by adding 12.5 ug of peptide from the stock solution to a 10 mM solution of DTT in PBS and allowed to incubate at room temperature for 30 minutes. Other reactions were prepared with 12.5 μg peptide with or without 500 U/ml pepsin in simulated gastric fluid (SGF; pH 1.05; […] sodium chloride in 0.7% (v/v) hydrochloric acid) and were incubated for 30 minutes at 37.5° C. Some reactions were quenched with a final concentration of 100 mM Tris base and 10 mM dithiothreitol (DTT). Some reactions were performed in all of the above components, including simulated gastric fluid, pepsin, Tris, and DTT (referred to as SPTD). Reversed phase HPLC (RP-HPLC) was run on samples using an Agilent 1260 HPLC equipped with a C-18 Poroshell 120B column. Sample were analyzed by a gradient method with a mobile phase of Solvent A (water with 0.1% TFA) and Solvent B (acetonitrile with 0.1% TFA). Solvent B was ramped up from 5%-45% of the mobile phase over a period of 10 minutes. Peptides were detected at an absorbance of 214 nm and 280 nm.
as §1
This example illustrates peptide stability in biological conditions including in the presence of reducing agents, proteases, oxidative conditions, acidic conditions, and simulated gastric fluids. […] Various peptides were suspended in 500 μl of ddH2O at a stock concentration of 2 mg/ml. This was then diluted in accord with the reaction conditions to prevent adverse buffering effects. Reactions were prepared with 12.5 μg peptide dissolved in solution and, in some samples, additionally suspended in a 10 mM solution of DTT, simulated gastric fluid (pH 1.05; […] sodium chloride in 0.7% (v/v) hydrochloric acid), 500 U pepsin (5000 U/ml pepsin), 50 U trypsin (500 U/ml trypsin) with 1 mg/ml inhibitor in PBS, or a combination of any of these conditions. All protease reactions were incubated for 30 min at room temperature and then quenched. Pepsin reactions were quenched by adding Tris base to a final concentration of 0.075 M. Trypsin reactions were quenched by adding excess soybean trypsin inhibitor. RP-HPLC was then run on samples using an Agilent 1260 HPLC equipped with a C-18 Poroshell 120B column. Sample were analyzed by a gradient method with a mobile phase of Solvent A (water with 0.1% TFA) and Solvent B (acetonitrile with 0.1% TFA). Solvent B was ramped up from 5%-45% of the mobile phase over a period of 10 minutes.
FIG. 18 illustrates high performance liquid chromatograph (HPLC) traces of peptides in non-reducing (NR) conditions (solid trace) or in 10 mM DTT reducing (R) conditions (dashed trace). […]

For a further data set, the target named is trypsin (Sus scrofa, UniProt P00761). Nature of the data set: Trypsin digestion resistance of soluble peptide, RP-HPLC. Conditions: 500 U/ml trypsin, 30 minutes at 37.5° C.; HPLC peak vs untreated peptide. Further details: purchased Sigma Aldrich 6567. In kind it is in vitro ADME, porcine. In a few lines:
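12.5 μg soluble peptide digested with 500 U/ml porcine trypsin in PBS, 30 min at 37.5° C; quenched with soybean trypsin inhibitor, with or without 10 mM DTT reduction afterwards. Intact peptide assessed by C-18 RP-HPLC, 5-45% acetonitrile/0.1% TFA gradient over 10 min.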

In another data set the target is pepsin (Sus scrofa, UniProt P00791). Nature of the data set: Pepsin digestion resistance in simulated gastric fluid, RP-HPLC. In kind it is in vitro ADME, porcine. Also on record: purchased Sigma Aldrich P7012. Conditions: 500 U/ml pepsin in SGF pH 1.05, 30 minutes at 37.5° C.; HPLC peak vs untreated peptide. In a few lines: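 Peptide (12.5 μg) incubated 30 min at 37.5 °C with or without 500 U/ml pepsin in simulated gastric fluid (pH 1.05; 2% NaCl in 0.7% HCl); some reactions quenched with 100 mM Tris and 10 mM DTT. Intact peptide followed by C-18 RP-HPLC (5–45% acetonitrile/0.1% TFA over 10 min) at 214 and 280 nm.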
pepsin, sequence (P00791 60-385): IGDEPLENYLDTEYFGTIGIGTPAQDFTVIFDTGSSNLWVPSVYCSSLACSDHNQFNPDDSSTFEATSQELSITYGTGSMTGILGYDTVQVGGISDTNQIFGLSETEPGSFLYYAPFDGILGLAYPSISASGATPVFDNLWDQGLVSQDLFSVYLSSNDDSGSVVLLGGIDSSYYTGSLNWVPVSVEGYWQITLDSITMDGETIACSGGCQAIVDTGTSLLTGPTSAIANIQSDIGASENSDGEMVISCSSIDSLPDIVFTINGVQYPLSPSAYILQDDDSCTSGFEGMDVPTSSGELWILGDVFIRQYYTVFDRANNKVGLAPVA

trypsin, sequence (P00761 9-231): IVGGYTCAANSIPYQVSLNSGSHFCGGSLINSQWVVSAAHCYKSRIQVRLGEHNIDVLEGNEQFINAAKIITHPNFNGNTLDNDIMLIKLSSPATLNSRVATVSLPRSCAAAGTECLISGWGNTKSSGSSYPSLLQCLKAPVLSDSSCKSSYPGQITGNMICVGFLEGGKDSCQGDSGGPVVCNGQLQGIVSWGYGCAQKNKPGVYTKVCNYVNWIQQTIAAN

In the case of “14 (GSSDYCSNDFCFFSCRRDRCARGDCENGKCVCKNCHLN) [compound 14]”, in data set [1], the “Resistance to Temperature (75° C.)” value was “High (A peptide classified as high indicates that the majority (at least 75%) of the HPLC peak of the treated peptide is still present as compared to the HPLC peak of the untreated peptide)” and the “Resistance to Temperature (100° C.)” value is recorded as “High (A peptide classified as high indicates that the majority (at least 75%) of the HPLC peak of the treated peptide is still present as compared to the HPLC peak of the untreated peptide)”. The “Resistance to DTT Reduction (10 mM)” value in data set [2] is recorded as “Low (A peptide classified as low indicates that the majority (over 75%) of the HPLC peak of the treated peptide disappeared as compared to the HPLC peak of the untreated peptide)”. In addition, the “Resistance to Trypsin (500 U/ml)” value with trypsin is on record as “Low (A peptide classified as low indicates that the majority (over 75%) of the HPLC peak of the treated peptide disappeared as compared to the HPLC peak of the untreated peptide)”. The “Resistance to Pepsin (500 U/ml)” value with pepsin was “Moderate (A peptide classified as medium indicates that about half (between 25% and 75%) of the HPLC peak of the treated peptide disappeared as compared to the HPLC peak of the untreated peptide)”.
As to “15 (GSCIGEGVPCDENDPRCCFGLVCLKPTLHGIWYKSYYCYKK) [compound 15]”, in data set [1], the “Resistance to Temperature (75° C.)” value is listed as “High (A peptide classified as high indicates that the majority (at least 75%) of the HPLC peak of the treated peptide is still present as compared to the HPLC peak of the untreated peptide)” and the “Resistance to Temperature (100° C.)” value is “Low (A peptide classified as low indicates that the majority (over 75%) of the HPLC peak of the treated peptide disappeared as compared to the HPLC peak of the untreated peptide)”. In addition, in data set [2], the “Resistance to DTT Reduction (10 mM)” value is “Low (A peptide classified as low indicates that the majority (over 75%) of the HPLC peak of the treated peptide disappeared as compared to the HPLC peak of the untreated peptide)”. For the same substance, in the data set with trypsin, the “Resistance to Trypsin (500 U/ml)” value was “Low (A peptide classified as low indicates that the majority (over 75%) of the HPLC peak of the treated peptide disappeared as compared to the HPLC peak of the untreated peptide)”. The “Resistance to Pepsin (500 U/ml)” value with pepsin is reported as “High (A peptide classified as high indicates that the majority (at least 75%) of the HPLC peak of the treated peptide is still present as compared to the HPLC peak of the untreated peptide)”.
As to “16 (GSSCAKPGEMCMRIKCCDGQCGCNRGTGRCFCK) [compound 16]”, in data set [1], the “Resistance to Temperature (75° C.)” value is “High (A peptide classified as high indicates that the majority (at least 75%) of the HPLC peak of the treated peptide is still present as compared to the HPLC peak of the untreated peptide)” and the “Resistance to Temperature (100° C.)” value is on record as “Low (A peptide classified as low indicates that the majority (over 75%) of the HPLC peak of the treated peptide disappeared as compared to the HPLC peak of the untreated peptide)”. In addition, the “Resistance to DTT Reduction (10 mM)” value in data set [2] is listed as “Low (A peptide classified as low indicates that the majority (over 75%) of the HPLC peak of the treated peptide disappeared as compared to the HPLC peak of the untreated peptide)”. Besides, the “Resistance to Trypsin (500 U/ml)” value with trypsin is given as “Low (A peptide classified as low indicates that the majority (over 75%) of the HPLC peak of the treated peptide disappeared as compared to the HPLC peak of the untreated peptide)”. Moreover, the “Resistance to Pepsin (500 U/ml)” value with pepsin is “High (A peptide classified as high indicates that the majority (at least 75%) of the HPLC peak of the treated peptide is still present as compared to the HPLC peak of the untreated peptide)”.
Turning to “17 (GSACQFWSCNSSCISRGYRQGYCWGIQYKYCQCQ) [compound 17]”, in data set [1], the “Resistance to Temperature (75° C.)” value was “High (A peptide classified as high indicates that the majority (at least 75%) of the HPLC peak of the treated peptide is still present as compared to the HPLC peak of the untreated peptide)” and the “Resistance to Temperature (100° C.)” value is “High (A peptide classified as high indicates that the majority (at least 75%) of the HPLC peak of the treated peptide is still present as compared to the HPLC peak of the untreated peptide)”. Also, the “Resistance to DTT Reduction (10 mM)” value in data set [2] is “Moderate (A peptide classified as medium indicates that about half (between 25% and 75%) of the HPLC peak of the treated peptide disappeared as compared to the HPLC peak of the untreated peptide)”. Further, the “Resistance to Trypsin (500 U/ml)” value with trypsin is on record as “Low (A peptide classified as low indicates that the majority (over 75%) of the HPLC peak of the treated peptide disappeared as compared to the HPLC peak of the untreated peptide)”. Further, the “Resistance to Pepsin (500 U/ml)” value with pepsin is listed as “High (A peptide classified as high indicates that the majority (at least 75%) of the HPLC peak of the treated peptide is still present as compared to the HPLC peak of the untreated peptide)”.
Take “19 (GSQDKCKKVYENYPVSKCQLANQCNYDCKLDKHARSGECFYDEKRNLQCICDYCEY) [compound 19]”: in data set [1], the “Resistance to Temperature (75° C.)” value is reported as “High (A peptide classified as high indicates that the majority (at least 75%) of the HPLC peak of the treated peptide is still present as compared to the HPLC peak of the untreated peptide)”; the “Resistance to Temperature (100° C.)” value is “Moderate (A peptide classified as medium indicates that about half (between 25% and 75%) of the HPLC peak of the treated peptide disappeared as compared to the HPLC peak of the untreated peptide)”. The “Resistance to DTT Reduction (10 mM)” value in data set [2] was “Low (A peptide classified as low indicates that the majority (over 75%) of the HPLC peak of the treated peptide disappeared as compared to the HPLC peak of the untreated peptide)”. For the same substance, in the data set with trypsin, the “Resistance to Trypsin (500 U/ml)” value is “High (A peptide classified as high indicates that the majority (at least 75%) of the HPLC peak of the treated peptide is still present as compared to the HPLC peak of the untreated peptide)”. Also, the “Resistance to Pepsin (500 U/ml)” value in the data set with pepsin is “High (A peptide classified as high indicates that the majority (at least 75%) of the HPLC peak of the treated peptide is still present as compared to the HPLC peak of the untreated peptide)”.
